± gives the uncertainty stated by the source.
B1: Glucocorticoid receptor, residues 419 to 494; numbered along this chain, P04150 (parent)
chain: KLCLVCSDEASGCHYGVLTCGSCKVFFKRAVEGQHNYLCAGRNDCIIDKIRRKNCPACRYRKCLQAGMNLEARKTK

Variants of: B1
Assay: abundance fitness (aPCA) (normalised: wild type 0, dead -1); higher = more abundant; growth selection in yeast, the domain comes from the species named
Conditions: Homo sapiens

KLCLVCSDEASGCHYGVLTCGSCKVFFKRAVEGQHNYLCAGRNDCIIDKIRRKNCPACRYRKCLFAGMNLEARKTK [Q65F] and KLCLVCSDEASGCHYGVLTCGSCKVFFKRAVEGQHNYLCAGRNDCIIDKIRRKNCPACRYRKCLGAGMNLEARKTK [Q65G] are within error of each other in abundance fitness: -0.045 ± 0.065 for the first, -0.06 ± 0.039 for the second.

KLCLVCSDEASGCHYGVLTCGSCKVFFKRAVEGQHNYLCAGRNDCIIDKIRRKNCPACRYRKCLAAGMNLEARKTK [Q65A] and KLCLVCSDEASGCHYGVLTCGSCKVFFKRAVEGQHNYLCAGRNDCIIDKIRRKNCPACRYRKCLEAGMNLEARKTK [Q65E] are within error of each other in abundance fitness: -0.019 ± 0.038 for the first, -0.06 ± 0.061 for the second.

KLCLVCSDEASGCHYGVLTCGSCKVFFKRAVEGQHNYLCAGRNDCIIDKIRRKNCPACRYRKCLHAGMNLEARKTK [Q65H] and KLCLVCSDEASGCHYGVLTCGSCKVFFKRAVEGQHNYLCAGRNDCIIDKIRRKNCPACRYRKCLDAGMNLEARKTK [Q65D] are within error of each other in abundance fitness: 0.09 ± 0.062 for the first, 0.045 ± 0.071 for the second.

KLCLVCSDEASGCHYGVLTCGSCKVFFKRAVEGQHNYLCAGRNDCIIDKIRRKNCPACRYRKCLKAGMNLEARKTK [Q65K] and KLCLVCSDEASGCHYGVLTCGSCKVFFKRAVEGQHNYLCAGRNDCIIDKIRRKNCPACRYRKCLCAGMNLEARKTK [Q65C] are within error of each other in abundance fitness: -0.052 ± 0.045 for the first, -0.111 ± 0.05 for the second.

Compared with KLCLVCSDEASGCHYGVLTCGSCKVFFKRAVEGQHNYLCAGRNDCIIDKIRRKNCPACRYRKMLQAGMNLEARKTK [C63M], KLCLVCSDEASGCHYGVLTCGSCKVFFKRAVEGQHNYLCAGRNDCIIDKIRRKNCPACRYRKNLQAGMNLEARKTK [C63N] is lower in abundance fitness: -0.075 ± 0.049 for the first, -0.667 ± 0.21 for the second.

KLCLVCSDEASGCHYGVLTCGSCKVFFKRAVEGQHNYLCAGRNDCIIDKIRRKNCPACRYRKYLQAGMNLEARKTK [C63Y] and KLCLVCSDEASGCHYGVLTCGSCKVFFKRAVEGQHNYLCAGRNDCIIDKIRRKNCPACRYRKHLQAGMNLEARKTK [C63H] are within error of each other in abundance fitness: -0.85 ± 0.22 for the first, -0.813 ± 0.25 for the second.

KLCLVCSDEASGCHYGVLTCGSCKVFFKRAVEGQHNYLCAGRNDCIIDKIRRKNCPACRYRKLLQAGMNLEARKTK [C63L] and KLCLVCSDEASGCHYGVLTCGSCKVFFKRAVEGQHNYLCAGRNDCIIDKIRRKNCPACRYRKVLQAGMNLEARKTK [C63V] are within error of each other in abundance fitness: -0.741 ± 0.068 for the first, -0.863 ± 0.088 for the second.

KLCLVCSDEASGCHYGVLTCGSCKVFFKRAVEGQHNYLCAGRNDCIIDKIRRKNCPACRYRKILQAGMNLEARKTK [C63I] and KLCLVCSDEASGCHYGVLTCGSCKVFFKRAVEGQHNYLCAGRNDCIIDKIRRKNCPACRYRKQLQAGMNLEARKTK [C63Q] are within error of each other in abundance fitness: -0.546 ± 0.23 for the first, -0.661 ± 0.094 for the second.

KLCLVCSDEASGCHYGVLTCGSCKVFFKRAVEGQHNYLCAGRNDCIIDKIRRKNCPACRYRKKLQAGMNLEARKTK [C63K] and KLCLVCSDEASGCHYGVLTCGSCKVFFKRAVEGQHNYLCAGRNDCIIDKIRRKNCPACRYRKRLQAGMNLEARKTK [C63R] are within error of each other in abundance fitness: -0.779 ± 0.14 for the first, -0.772 ± 0.082 for the second.

First: KLCLVCSDEASGCHYGVLTCGSCKVFFKRAVEGQHNYLCAGRNDCIIDKIRRKNCPACRYRKWLQAGMNLEARKTK [C63W]
Second: KLCLVCSDEASGCHYGVLTCGSCKVFFKRAVEGQHNYLCAGRNDCIIDKIRRKNCPACRYRKGLQAGMNLEARKTK [C63G]
The abundance fitness of the first is lower: -0.889 ± 0.12 for the first, -0.06 ± 0.031 for the second.

First: KLCLVCSDEASGCHYGVLTCGSCKVFFKRAVEGQHNYLCAGRNDCIIDKIRRKNCPACRYRKTLQAGMNLEARKTK [C63T]
Second: KLCLVCSDEASGCHYGVLTCGSCKVFFKRAVEGQHNYLCAGRNDCIIDKIRRKNCPACRYRKSLQAGMNLEARKTK [C63S]
The abundance fitness of the first is lower: -0.909 ± 0.13 for the first, -0.42 ± 0.05 for the second.

KLCLVCSDEASGCHYGVLTCGSCKVFFKRAVEGQHNYLCAGRNDCIIDKIRRKNCPACRYRKCTQAGMNLEARKTK [L64T] and KLCLVCSDEASGCHYGVLTCGSCKVFFKRAVEGQHNYLCAGRNDCIIDKIRRKNCPACRYRKCSQAGMNLEARKTK [L64S] are within error of each other in abundance fitness: -0.074 ± 0.04 for the first, -0.082 ± 0.04 for the second.

Going from KLCLVCSDEASGCHYGVLTCGSCKVFFKRAVEGQHNYLCAGRNDCIIDKIRRKNCPACRYRKCDQAGMNLEARKTK [L64D] to KLCLVCSDEASGCHYGVLTCGSCKVFFKRAVEGQHNYLCAGRNDCIIDKIRRKNCPACRYRKCNQAGMNLEARKTK [L64N], the abundance fitness rises from -0.296 ± 0.064 to -0.083 ± 0.082.

KLCLVCSDEASGCHYGVLTCGSCKVFFKRAVEGQHNYLCAGRNDCIIDKIRRKNCPACRYRKCWQAGMNLEARKTK [L64W] and KLCLVCSDEASGCHYGVLTCGSCKVFFKRAVEGQHNYLCAGRNDCIIDKIRRKNCPACRYRKCFQAGMNLEARKTK [L64F] are within error of each other in abundance fitness: -0.031 ± 0.038 for the first, -0.107 ± 0.069 for the second.

KLCLVCSDEASGCHYGVLTCGSCKVFFKRAVEGQHNYLCAGRNDCIIDKIRRKNCPACRYRKCMQAGMNLEARKTK [L64M] and KLCLVCSDEASGCHYGVLTCGSCKVFFKRAVEGQHNYLCAGRNDCIIDKIRRKNCPACRYRKCCQAGMNLEARKTK [L64C] are within error of each other in abundance fitness: -0.023 ± 0.053 for the first, 0.025 ± 0.052 for the second.

Compared with KLCLVCSDEASGCHYGVLTCGSCKVFFKRAVEGQHNYLCAGRNDCIIDKIRRKNCPACRYRKCYQAGMNLEARKTK [L64Y], KLCLVCSDEASGCHYGVLTCGSCKVFFKRAVEGQHNYLCAGRNDCIIDKIRRKNCPACRYRKCEQAGMNLEARKTK [L64E] is higher in abundance fitness: -0.161 ± 0.061 for the first, 0.016 ± 0.039 for the second.

Compared with KLCLVCSDEASGCHYGVLTCGSCKVFFKRAVEGQHNYLCAGRNDCIIDKIRRKNCPACRYRKCAQAGMNLEARKTK [L64A], KLCLVCSDEASGCHYGVLTCGSCKVFFKRAVEGQHNYLCAGRNDCIIDKIRRKNCPACRYRKCPQAGMNLEARKTK [L64P] is lower in abundance fitness: -0.154 ± 0.039 for the first, -0.682 ± 0.13 for the second.

Going from KLCLVCSDEASGCHYGVLTCGSCKVFFKRAVEGQHNYLCAGRNDCIIDKIRRKNCPACRYRKCKQAGMNLEARKTK [L64K] to KLCLVCSDEASGCHYGVLTCGSCKVFFKRAVEGQHNYLCAGRNDCIIDKIRRKNCPACRYRKCGQAGMNLEARKTK [L64G], the abundance fitness falls from -0.01 ± 0.045 to -0.273 ± 0.036.

— the Human Domainome abundance scans (Beltran et al. 2025)
